Experimental data: PMC3894725 (Nature, 2012)

Target: the molecule itself
Experiment: crystal structure

B1: human pyruvate kinase M2 (His6-hPKM2) (enzyme)
chain: not shown
Q: For B1, which “stoichiometry N” value is on record?
A: 4
